In article PMC10567574, “piRNA processing by a trimeric Schlafen-domain nuclease” (Nature, 2023):
Blank lines part the entries; values can stand above or below the binder they belong to.

B2: TOFU-6 eTUDOR domain (residues 119-314) (domain or fragment, C. elegans, UniProt Q09293 119-314, looked up)
chain: VLLSSSWLPLNKDIEVEVVDYLPSSSVAPDLFALTLLRINDSSMKEKYDSMHEKMNAYAQIVPFDSELEIGYDGVFRDAPRSVRRVRRISATKLYLVDFGKIINYEKAKCFQLPKVFQSMPTRVSLCGLDGLTWSPVAIPSFDNIREVVKKWGQMENSTLHAMACGFQGSINMINLFCGKSILADRLQRKGVCEYL
notes: TOFU-6, C. elegans, eTUDOR domain, residues 119-314; also called extended TUDOR domain of TOFU-6

Experiments:
Conditions in all cases: both partners purified
MBP-TOFU-6^eTUDOR domain = biological target: T1, MBP-TOFU-6^eTUDOR domain (C. elegans, UniProt Q09293 119-314); assay: pull-down; purified MBP-TOFU-6^eTUDOR constructs as bait (MBP pull-down) and GST-tagged TOFU-1 constructs as bait (GST pull-down); 20 mM Tris/HCl pH 7.5, 150 mM NaCl, 10% glycerol, 0.05% NP40, 1 mM DTT; SDS-PAGE with Coomassie staining
T1 construct: TOFU-6, C. elegans, eTUDOR domain (residues 119-314 as stated for TOFU-6^eTUDOR); source: purified recombinant
T1 sequence (looked up): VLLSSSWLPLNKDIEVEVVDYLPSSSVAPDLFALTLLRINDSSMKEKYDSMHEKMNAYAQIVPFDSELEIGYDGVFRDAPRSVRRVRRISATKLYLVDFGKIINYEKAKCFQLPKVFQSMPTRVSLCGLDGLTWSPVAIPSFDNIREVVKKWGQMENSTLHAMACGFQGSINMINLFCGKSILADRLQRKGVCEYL

MBP-tagged TOFU-1^82-373 = biological target: T2, MBP-tagged TOFU-1^82-373 (C. elegans, UniProt O17608 82-373); assay: pull-down; purified MBP-tagged TOFU-1 as bait on amylose beads, incubated with excess prey; 20 mM Tris/HCl pH 7.5, 150 mM NaCl, 10% glycerol, 0.05% NP40, 1 mM DTT; SDS-PAGE with Coomassie staining
T2 construct: TOFU-1 (SLFL-1), C. elegans, residues 82-373; source: E. coli BL21(DE3) derivative, purified; not shown: MBP, N-terminal, kept
T2 sequence (looked up): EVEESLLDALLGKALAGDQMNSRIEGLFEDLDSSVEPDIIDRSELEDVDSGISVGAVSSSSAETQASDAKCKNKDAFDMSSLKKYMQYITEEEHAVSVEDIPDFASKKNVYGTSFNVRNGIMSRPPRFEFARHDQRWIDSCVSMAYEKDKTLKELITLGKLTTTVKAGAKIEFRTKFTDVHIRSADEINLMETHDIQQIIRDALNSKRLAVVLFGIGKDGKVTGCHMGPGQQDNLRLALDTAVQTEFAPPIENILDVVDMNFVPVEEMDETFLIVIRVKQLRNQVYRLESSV

[1] = biological target: B2; assay: SEC; purified proteins alone or mixed at 20-40 uM, 1 h on ice; Superdex 200 Increase 3.2/300 in 20 mM Tris/HCl pH 7.5, 150 mM NaCl, 2 mM DTT; elution volumes compared, peak fractions on SDS-PAGE
[2] = biological target: B2; assay: ITC; TOFU-6^eTUDOR (injectant, 400-450 uM) titrated into TOFU-1^W-82-113 (cell, 45-48 uM); 25 C; 20 mM Tris, 250 mM NaCl, 0.5 mM TCEP, pH 7.50; mean of three experiments
TOFU-6^eTUDOR V266E = biological target: T3, TOFU-6^eTUDOR V266E (C. elegans, UniProt Q09293 119-314, V266E); assay: SEC; purified proteins alone or mixed at 20-40 uM, 1 h on ice; Superdex 200 Increase 3.2/300 in 20 mM Tris/HCl pH 7.5, 150 mM NaCl, 2 mM DTT; elution volumes compared, peak fractions on SDS-PAGE
T3 construct: TOFU-6, C. elegans, eTUDOR domain (residues 119-314 as stated for TOFU-6^eTUDOR) with V266E; source: purified recombinant
T3 sequence (looked up): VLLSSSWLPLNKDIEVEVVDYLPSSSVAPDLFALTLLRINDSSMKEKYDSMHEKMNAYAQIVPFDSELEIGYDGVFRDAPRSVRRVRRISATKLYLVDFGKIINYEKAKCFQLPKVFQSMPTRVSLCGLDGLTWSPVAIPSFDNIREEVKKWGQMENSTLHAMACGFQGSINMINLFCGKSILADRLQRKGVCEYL

B1: GST-tagged TOFU-1^82-113 (peptide, UniProt O17608 82-113, looked up)
chain: EVEESLLDALLGKALAGDQMNSRIEGLFEDLD
notes: also called TOFU-1^pep; source: purified recombinant; not shown: GST, N-terminal, kept
binding result (MBP-TOFU-6^eTUDOR domain): binds

Binder: B2
binding result (MBP-tagged TOFU-1^82-373): binds

B4: TOFU-1^W-82-113 (peptide)
chain: WEVEESLLDALLGKALAGDQMNSRIEGLFEDLD
notes: tryptophan residue added at the N terminus so that the concentration can be determined; Used for ITC and crystallization; also called TOFU-1^pep; TOFU-1 peptide; source: purified (engineered TOFU-1 peptide)
Kd [2]: ~20 µM

Further lines, results first:

binding result [1]: binds
B3: TOFU-1^pep (residues 82-113) (peptide, UniProt O17608 82-113, looked up)
chain: EVEESLLDALLGKALAGDQMNSRIEGLFEDLD
notes: also called first helix of the N-terminal part of TOFU-1; source: E. coli BL21(DE3) derivative, purified

binding result [1]: binds
B5: TOFU-1^82-172 L88R/L92R (domain or fragment, C. elegans, UniProt O17608 82-172, looked up)
chain: EVEESLRDALRGKALAGDQMNSRIEGLFEDLDSSVEPDIIDRSELEDVDSGISVGAVSSSSAETQASDAKCKNKDAFDMSSLKKYMQYITE
notes: source: purified recombinant

binding result [1]: binds
binding result (TOFU-6^eTUDOR V266E): binds
B6: TOFU-1^82-172 (domain or fragment, C. elegans, UniProt O17608 82-172, looked up)
chain: EVEESLLDALLGKALAGDQMNSRIEGLFEDLDSSVEPDIIDRSELEDVDSGISVGAVSSSSAETQASDAKCKNKDAFDMSSLKKYMQYITE
notes: also called TOFU-1^N; source: E. coli BL21(DE3) derivative, purified
